The target in test [1] is T1, RNF43 (UniProt Q68DV7 24-197, limits assumed).
T1 sequence (looked up): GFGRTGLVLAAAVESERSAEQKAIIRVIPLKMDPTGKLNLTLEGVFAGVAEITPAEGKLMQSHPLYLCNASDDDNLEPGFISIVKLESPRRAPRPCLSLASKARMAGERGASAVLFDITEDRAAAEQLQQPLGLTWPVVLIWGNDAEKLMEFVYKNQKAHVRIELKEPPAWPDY
The test can be described thus: affinity for RNF43; method and format not stated; WT anti-RNF43 A5.

Test [2] addresses T1, RNF43. The test can be described thus: affinity for RNF43; method and format not stated; F115A mutant of CDR H3.
Test [3] deals with T1, RNF43. Description: affinity for RNF43; method and format not stated; S113A mutant of CDR H3.

Usually Kd stands for a measure of binding affinity in units of concentration. Low values mean tighter binding, high ones weaker binding.

Where a chain is given by its changes, count along the chain named. Names may count otherwise.

B1: anti-RNF43 A5 (WT RNF43 binder) (Fab, V domains shown)
VH: EVQLVESGGGLVQPGGSLRLSCAASGFNIYYYSMHWVRQAPGKGLEWVASISPYYSYTSYADSVKGRFTISADTSKNTAYLQMNSLRAEDTAVYYCARYGYYGWDYHRYSAFDYWGQGTLVTVSS
VL: DIQMTQSPSSLSASVGDRVTITCRASQSVGSALAWYQQKPGKAPKLLIYSASSLYSGVPSRFSGSRSGTDFTLTISSLQPEDFATYYCQQAYPITFGQGTKVEIKR
notes: also called WT RNF43 A5; clone anti-RNF43 A5
B1: the Kd in the test with RNF43 [1] stood at 12.5 nM.

B2: anti-RNF43 A5 alanine mutant F115A (CDR H3) (Fab, V domains shown)
VH: B1 VH with F112A
VL: B1 VL
Molecule B2 displayed a Kd with RNF43 [2] of 125 nM.

B3: anti-RNF43 A5 alanine mutant S113A (CDR H3) (Fab, V domains shown)
VH: B1 VH with S110A
VL: B1 VL
notes: also called 40 nM
The molecule B3 gave a Kd with RNF43 [3] of 40 nM.

For the origin of these results see patent US20240026031A1 (University of California, published 2024).
